Measured values taken from patent US20250009896A1, “SUPR[…] BASED VIRAL […] CAPTURE FOR PREVENTION AND THERAPY OF VIRAL INFECTION” (The Johns Hopkins University, priority 2023, published 2025).

Legend:
[1] = target: T1, Recombinant human angiotensin-converting enzyme 2 (ACE2) protein, carrier-free (R&D Systems) (human), Q9BYF1; assay: calculated reference value for the zeta potential of the mixture
[2] = target: T1, Recombinant human …

T1 sequence (Q9BYF1 18-740 limits assumed): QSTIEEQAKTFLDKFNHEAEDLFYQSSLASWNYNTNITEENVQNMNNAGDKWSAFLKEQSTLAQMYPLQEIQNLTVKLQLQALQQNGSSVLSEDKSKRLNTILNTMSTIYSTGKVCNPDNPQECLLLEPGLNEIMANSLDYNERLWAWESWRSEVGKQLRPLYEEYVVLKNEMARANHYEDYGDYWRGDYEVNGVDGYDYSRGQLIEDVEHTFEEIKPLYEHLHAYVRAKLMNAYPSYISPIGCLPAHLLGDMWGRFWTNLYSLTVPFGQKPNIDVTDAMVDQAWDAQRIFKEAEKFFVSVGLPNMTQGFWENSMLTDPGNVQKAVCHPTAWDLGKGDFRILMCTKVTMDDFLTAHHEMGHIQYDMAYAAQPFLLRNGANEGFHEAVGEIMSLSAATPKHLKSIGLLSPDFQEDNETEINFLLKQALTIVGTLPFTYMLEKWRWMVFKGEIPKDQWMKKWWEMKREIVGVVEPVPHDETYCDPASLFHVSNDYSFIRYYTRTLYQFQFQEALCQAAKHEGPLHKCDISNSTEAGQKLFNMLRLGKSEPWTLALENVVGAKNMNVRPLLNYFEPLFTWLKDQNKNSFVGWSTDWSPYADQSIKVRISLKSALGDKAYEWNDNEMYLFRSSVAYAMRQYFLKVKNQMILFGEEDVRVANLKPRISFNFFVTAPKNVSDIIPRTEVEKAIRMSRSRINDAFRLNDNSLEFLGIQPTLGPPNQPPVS

B1: sLigand peptide amphiphile (scrambled analog of Ligand) (peptide)
peptide: VVVGKKGGYPKYPCTGSGSDGDELCGWYPHWPYR
modifications: not checked
In the case of B1, the intensity-averaged zeta potential calculated assuming no interaction [1] is reported as -19 mV and the zeta potential of the mixture, measured [2] is reported as -19.2 mV.
